Earlier results, collected in paper PMC7704677.

Tests used:
Experiment in all cases: UV-vis
Conditions in all cases: unphotolysed state; further details not given
Asp75 = system: Asp75
Asp95 = Asp95 (UniProt position 95, FYRYADWLLTV)
Asp89 = system: Asp89
Asp85 = Asp85 (UniProt position 98, WARYADWLFTT)

Anabaena sensory rhodopsin (ASR) (Anabaena (Nostoc) sp.)
pKa (Asp75): 4.0

Thermophilic rhodopsin (TR) (Thermus thermophilus)
pKa (Asp95): 3.4

Acetabularia rhodopsin I (ARI) (Acetabularia acetabulum)
pKa (Asp89): 2.7

Bacteriorhodopsin (HsBR) (Halobacterium salinarum)
pKa (Asp85): 2.7
